Measurements: the supplement of paper PMC9732359
± gives the uncertainty stated by the source.

Assay: protein stability index of a GFP-peptide fusion (yeast GPS) (PSI 1-4); higher = more stable; sorted into four equal gates, so the index is relative within each strain
In short: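 Tiled 17-residue yeast protein peptides were fused downstream of GFP in a plasmid that also expresses Cherry, and the pooled library was carried in yeast. Mid-log cultures in leucine-free medium were sorted into four equal gates by GFP/Cherry fluorescence ratio, and plasmids from each gate were PCR-amplified and Illumina-sequenced, with reads assigned to strains by barcodes. The protein stability index for each peptide was each gate's read frequency times its gate number, summed.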

Sequence	protein stability index (pdr5∆)	protein stability index (san1∆)	protein stability index (ubr1∆)	protein stability index (doa10∆)
PIVEDRRVKQLDDITDS [SIR4]	1.49 ± 0.19	1.31 ± 0.21	1.64 ± 0.12	
SSSGNTWSLILNECLKT [YML031W/NDC1]	1.73 ± 0.084	1.48 ± 0.13	1.52 ± 0.061	1.85 ± 0.066
RLWHTLKYYQDLKNTRM [SNF5]	2.02 ± 0.048	2.01 ± 0.06	1.7 ± 0.051	1.77 ± 0.057
SAAKYKDMKLLRYYKNI [NUT1]	2.2 ± 0.06	2.23 ± 0.079	1.99 ± 0.04	1.83 ± 0.059
VTNSLSNEEKEKIKMKL [GAL11]		3.1 ± 0.13		
KGTVFQFEIPISDDDDS [POP4]	2.47 ± 0.15	2.29 ± 0.15	3.13 ± 0.042	3.3 ± 0.17
MLSKTKVYYFQGGNNEL [RPL30]	3.17 ± 0.26	2.99 ± 0.14	3.4 ± 0.25	2.87 ± 0.15
ADWDPESMAYTAFQTQR [YML031W/NDC1]	3.34 ± 0.11	3.24 ± 0.17	3.36 ± 0.12	2.89 ± 0.14
AELEELEEFEFKHGPMS [SMD2]	3.41 ± 0.063	3.15 ± 0.058	3.34 ± 0.071	3.42 ± 0.078
VIGLDSEHDKKRLSAAL [YML103C/NUP188]	3.69 ± 0.19	3.14 ± 0.13	3.67 ± 0.14	3.5 ± 0.23
QNSDASTLEPTLRKELE [YIL149C/MLP2]	1.68 ± 0.091	2.55 ± 0.069	3.12 ± 0.077	2.59 ± 0.09
LMDDMSDISDLDDLGFL [RPN3]	1.81 ± 0.059	1.92 ± 0.091	1.77 ± 0.04	1.77 ± 0.062
MVVQNSPVSSVHTANFS [MED2]	2.67 ± 0.075	2.01 ± 0.099	2.75 ± 0.054	2.12 ± 0.1
LRQLLKERYTVEDELTE [RRI1]	2.71 ± 0.15	3.33 ± 0.076	3.51 ± 0.084	3.04 ± 0.097
LSSVALRSDFYILANHY [YJL039C/NUP192]	2.28 ± 0.13	1.59 ± 0.24	2 ± 0.098	2.06 ± 0.15
APAYAWSHNGPFETFDH [CYT1]	2.64 ± 0.099	1.75 ± 0.16	2.78 ± 0.1	2.19 ± 0.098
IQHIAAAMVPFIKFKLI [CDC53]	2.42 ± 0.043	2.42 ± 0.056	2.43 ± 0.048	2.42 ± 0.048
VEDFLERRLQTQVYKLG [RPS9A]	1.45 ± 0.095	1.97 ± 0.27	1.93 ± 0.18	1.28 ± 0.071
VGVIGPLHSGKTSLMDL [SNU114]	2.68 ± 0.11	3.29 ± 0.19	3.13 ± 0.07	2.97 ± 0.11
KHIKNLEDDSLLSYPIK [RPN12]	2.44 ± 0.033	2.56 ± 0.045	2.617 ± 0.026	2.9 ± 0.047
TAGVGSTPNFGGNSNKS [SIN4]	3.31 ± 0.21	3.39 ± 0.078	3.36 ± 0.061	3.73 ± 0.2
SSIHWNNWFSLPGDMLA [SIN4]	1.88 ± 0.055	1.71 ± 0.11	1.93 ± 0.041	2.56 ± 0.061
FLIHSGQPVNDFIDTAT [RPS3]	3 ± 0.056	3.09 ± 0.05	3.04 ± 0.073	2.71 ± 0.053
YTMSNHGMSVDPRHIQL [RPO31]	2.91 ± 0.083	2.94 ± 0.053	3.01 ± 0.044	2.85 ± 0.066
TLRTISFKGSPNERKAK [SNF2]		2.74 ± 0.15	2.51 ± 0.13	3.19 ± 0.17
KYVLITGAGKGSIGAEV [FAS2]	3.27 ± 0.12	3.63 ± 0.099	3.05 ± 0.093	3.22 ± 0.24
FHFAIEQISNNSNQQQN [SIN4]	2.53 ± 0.044	2.74 ± 0.066	2.9 ± 0.049	2.93 ± 0.061

Sequence	protein stability index (pdr5∆)	protein stability index (san1∆)	protein stability index (ubr1∆)	protein stability index (doa10∆)
TGPIEPKARQELPTQLA [RRP46]	2.79 ± 0.074	3.21 ± 0.089	3.04 ± 0.056	2.82 ± 0.072
QAVNNLIKTLSTLHMLG [RPP1]	2.45 ± 0.058	2.38 ± 0.071	2.47 ± 0.042	2.5 ± 0.053
DTVAELQAQLDYLNAEL [FAS2]	3.08 ± 0.081	3.12 ± 0.049	2.96 ± 0.09	2.81 ± 0.092
ILYGPPGTGKTLLARAV [RPT6]	3.09 ± 0.23	3.35 ± 0.16	2.95 ± 0.21	3.4 ± 0.16
LHTARKILVLTGAGVST [SIR2]	1.56 ± 0.054	2.33 ± 0.082	2.29 ± 0.059	2.06 ± 0.052
VVEKKTVGSSNGGLIHV [RPO21]	3.07 ± 0.079	2.8 ± 0.053	3 ± 0.055	2.97 ± 0.081
HNAKNGTLDKNSQTVSG [SNF2]	2.42 ± 0.2	2.37 ± 0.2	2.96 ± 0.16	1.98 ± 0.13
RALYTPFLLMELHKKLV [YDL116W/NUP84]	1.45 ± 0.087	1.29 ± 0.22	1.26 ± 0.13	1.82 ± 0.094
QQQQQQQVPPLPDELTL [DLS1]	2.72 ± 0.038	2.727 ± 0.027	2.689 ± 0.025	2.63 ± 0.035
VAAERAARKAANKEKRA [RPL7A]	1.54 ± 0.12		1.71 ± 0.082	2.36 ± 0.21
KAEKTLKSTKHSISEAE [SMC4]	1.99 ± 0.058	1.92 ± 0.063	2.5 ± 0.044	2.57 ± 0.068
MTSIGTGYDLSNSVFSP [PRE10]	2.91 ± 0.11	2.23 ± 0.27	2.8 ± 0.12	2.77 ± 0.085
KELFEKTFDYVSDHLDA [SMC1]	2.87 ± 0.068	2.9 ± 0.077	3 ± 0.049	3.35 ± 0.085
SSEALEAARICANKYMT [RPL10]	1.82 ± 0.16	1.36 ± 0.19	1.29 ± 0.11	1.35 ± 0.13
RPTGGANMATVPSTTNV [MED6]	2.93 ± 0.06	2.42 ± 0.17	2.91 ± 0.04	2.66 ± 0.062
RTQPWSIMPDLYFYRNP [RPS0B]	2.85 ± 0.056	2.85 ± 0.043	2.6 ± 0.055	2.55 ± 0.051
YKNEDVTALLEQGFKVV [YCS4]	3.08 ± 0.1	2.93 ± 0.097	2.74 ± 0.091	2.8 ± 0.1
FLLNQNKQLSQSVEEKV [YIL149C/MLP2]	1.84 ± 0.1	1.77 ± 0.14	2.09 ± 0.068	2.16 ± 0.084
FFDPKPFDQNLDSNNNN [SWI1]	2.83 ± 0.092	3.14 ± 0.048	2.88 ± 0.069	2.98 ± 0.085
SKESWRYDWYQPSKVSS [RTT102]	2.33 ± 0.098	1.94 ± 0.074	1.96 ± 0.036	2.09 ± 0.097
TDDVRLAPELNQAIWKR [RPL31A]	3.3 ± 0.077	3.18 ± 0.079	3.12 ± 0.048	3.28 ± 0.1
NTSLPPSILEDSLENNE [FAS1]	2.98 ± 0.11	3.11 ± 0.095	2.81 ± 0.079	2.89 ± 0.11
NKRLCDEIATIQSKRLR [RPS17A]	2.94 ± 0.063	3.1 ± 0.046	3.22 ± 0.071	2.75 ± 0.081
HYKVPTDTSTTATAATN [MED6]	2.62 ± 0.053	2.29 ± 0.067	2.61 ± 0.044	2.28 ± 0.054
LLTPDIGAVYSGMGPDY [PRE8]	1.72 ± 0.074	1.2 ± 0.1	1.52 ± 0.081	1.32 ± 0.055
YFAKLREYLEEYKSLFV [RPP0]	2.65 ± 0.15	2.98 ± 0.073	3.24 ± 0.095	2.46 ± 0.19
